The target in this assay is TAP-tagged Lid1 (Apc4), subunit of the APC/C (S. pombe) (UniProt O42839). Nature of the assay: co-IP; Apc4-TAP pulled down with IgG Dynabeads from extracts of cdc25-22 cells released from G2 into mitosis at 25°C, carbendazim added after 20 min, time points every 15 min; blots for Mad3p (anti-GFP) and Mad2p; lysis buffer 50 mM HEPES pH 7.5, 75 mM KCl, 0.1% TritonX-100; strains wild type, mad3-KEN1, mad3-KEN2, mad3-C9A, mad2-S92A, mad3-C9A mad2-S92A.
Sequence of UniProt O42839 (O42839 whole entry): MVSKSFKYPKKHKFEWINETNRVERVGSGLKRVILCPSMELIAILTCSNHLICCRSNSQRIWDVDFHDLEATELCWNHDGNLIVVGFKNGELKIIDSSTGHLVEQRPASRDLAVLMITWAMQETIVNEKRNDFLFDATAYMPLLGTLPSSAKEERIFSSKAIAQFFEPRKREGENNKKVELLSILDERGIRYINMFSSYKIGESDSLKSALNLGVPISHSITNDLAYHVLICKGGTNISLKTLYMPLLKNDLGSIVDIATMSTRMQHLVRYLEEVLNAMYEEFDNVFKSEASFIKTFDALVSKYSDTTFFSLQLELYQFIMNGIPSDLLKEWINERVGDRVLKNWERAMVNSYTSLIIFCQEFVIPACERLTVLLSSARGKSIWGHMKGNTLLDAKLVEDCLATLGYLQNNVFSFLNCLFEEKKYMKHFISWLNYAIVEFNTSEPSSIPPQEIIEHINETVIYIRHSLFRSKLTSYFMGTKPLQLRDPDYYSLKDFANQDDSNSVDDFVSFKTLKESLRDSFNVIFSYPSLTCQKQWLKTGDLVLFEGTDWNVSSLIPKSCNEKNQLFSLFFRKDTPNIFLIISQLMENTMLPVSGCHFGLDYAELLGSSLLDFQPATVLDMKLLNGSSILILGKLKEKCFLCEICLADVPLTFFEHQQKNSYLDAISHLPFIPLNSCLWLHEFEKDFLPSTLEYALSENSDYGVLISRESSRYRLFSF

With “Mad3-C9A tagged with GFP (from UniProt O59767 1-310) (natural protein)”, the level bound to the APC/C as percent of wild type (mad3-C9A mad2-S92A strain, 45 and 60 min) was determined as 20%.
With “Mad3-KEN2 mutant tagged with GFP (from UniProt O59767 1-310) (natural protein)”, the MCC-APC/C level as percent of wild type, 60 min was 65%.

(Values after paper PMC4755545.)
